Laboratory results from article PMC2532730 (Nucleic Acids Research, 2008).

Biological target: BLM (Bloom's syndrome helicase), purified recombinant (human, UniProt P54132 1-1417)
Assay: far-Western, overlay or dot blot

Sequence of BLM (Bloom's syndrome helicase), purified recombinant (P54132 whole entry): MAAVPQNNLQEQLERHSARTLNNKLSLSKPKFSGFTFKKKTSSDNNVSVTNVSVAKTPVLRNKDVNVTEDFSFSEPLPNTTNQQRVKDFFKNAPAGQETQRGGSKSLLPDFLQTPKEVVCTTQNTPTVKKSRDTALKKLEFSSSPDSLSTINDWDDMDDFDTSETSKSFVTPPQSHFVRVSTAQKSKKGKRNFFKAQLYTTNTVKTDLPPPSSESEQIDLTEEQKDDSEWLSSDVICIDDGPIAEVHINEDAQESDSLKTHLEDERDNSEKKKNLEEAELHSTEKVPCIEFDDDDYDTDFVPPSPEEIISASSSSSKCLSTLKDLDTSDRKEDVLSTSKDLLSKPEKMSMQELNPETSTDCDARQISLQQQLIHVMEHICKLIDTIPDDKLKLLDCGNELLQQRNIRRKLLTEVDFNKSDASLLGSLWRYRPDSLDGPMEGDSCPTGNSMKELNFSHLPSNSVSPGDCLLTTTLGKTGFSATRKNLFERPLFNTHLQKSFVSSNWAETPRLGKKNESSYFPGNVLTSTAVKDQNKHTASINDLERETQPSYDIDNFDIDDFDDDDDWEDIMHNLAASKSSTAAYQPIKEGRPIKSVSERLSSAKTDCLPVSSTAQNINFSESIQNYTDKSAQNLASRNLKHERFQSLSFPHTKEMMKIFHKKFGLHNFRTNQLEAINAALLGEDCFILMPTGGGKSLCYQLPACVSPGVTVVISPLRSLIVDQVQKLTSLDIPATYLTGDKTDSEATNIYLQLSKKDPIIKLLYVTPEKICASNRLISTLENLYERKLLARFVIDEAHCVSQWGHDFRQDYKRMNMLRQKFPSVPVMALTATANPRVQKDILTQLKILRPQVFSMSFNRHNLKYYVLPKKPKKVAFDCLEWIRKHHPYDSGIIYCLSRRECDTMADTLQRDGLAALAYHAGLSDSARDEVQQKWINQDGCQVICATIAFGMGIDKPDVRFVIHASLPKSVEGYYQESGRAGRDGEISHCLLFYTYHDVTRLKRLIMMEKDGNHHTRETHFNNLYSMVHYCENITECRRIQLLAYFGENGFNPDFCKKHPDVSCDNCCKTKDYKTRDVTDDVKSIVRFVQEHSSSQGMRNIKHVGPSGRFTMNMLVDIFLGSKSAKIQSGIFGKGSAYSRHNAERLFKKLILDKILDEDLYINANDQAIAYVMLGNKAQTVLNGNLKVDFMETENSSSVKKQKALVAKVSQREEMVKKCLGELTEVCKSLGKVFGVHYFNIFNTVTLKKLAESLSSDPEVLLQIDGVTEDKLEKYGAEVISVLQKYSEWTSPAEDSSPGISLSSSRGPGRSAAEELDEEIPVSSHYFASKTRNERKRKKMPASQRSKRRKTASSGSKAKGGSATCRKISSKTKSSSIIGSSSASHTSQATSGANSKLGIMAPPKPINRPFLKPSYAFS

B1: p12 subunit of the purified four-subunit hPOL δ enzyme (natural protein, human, UniProt Q9HCU8 1-107, looked up)
chain: MGRKRLITDSYPVVKRREGPAGHSKGELAPELGEEPQPRDEEEAELELLRQFDLAWQYGPCTGITRLQRWCRAKQMGLEPPPEVWQVLKTHPGDPRFQCSLWHLYPL
B1: binds.

B2: 6xHis-p12 protein (p12, smallest subunit of human DNA polymerase δ), purified recombinant (natural protein, UniProt Q9HCU8 1-107, looked up)
chain: MGRKRLITDSYPVVKRREGPAGHSKGELAPELGEEPQPRDEEEAELELLRQFDLAWQYGPCTGITRLQRWCRAKQMGLEPPPEVWQVLKTHPGDPRFQCSLWHLYPL
B2: binds.
